# Assay results as given in patent publication US8173397B2, “Folded recombinant catalytic fragments of multidomain serine proteases, preparation and uses thereof” (TargetEx Kft., priority 2002, dated 2012).
# Assays:
# MASP-1 CCP1-CCP2-SP = target: T1, MASP-1 CCP1-CCP2-SP (Homo sapiens, UniProt P48740); assay: Inhibition of the enzymatic activities of the MASP-1 fragment by C1-inhibitor and alpha-2-macroglobulin; assay type: biochemical
# T1 construct: made in house
# T1 sequence (P48740 298-699): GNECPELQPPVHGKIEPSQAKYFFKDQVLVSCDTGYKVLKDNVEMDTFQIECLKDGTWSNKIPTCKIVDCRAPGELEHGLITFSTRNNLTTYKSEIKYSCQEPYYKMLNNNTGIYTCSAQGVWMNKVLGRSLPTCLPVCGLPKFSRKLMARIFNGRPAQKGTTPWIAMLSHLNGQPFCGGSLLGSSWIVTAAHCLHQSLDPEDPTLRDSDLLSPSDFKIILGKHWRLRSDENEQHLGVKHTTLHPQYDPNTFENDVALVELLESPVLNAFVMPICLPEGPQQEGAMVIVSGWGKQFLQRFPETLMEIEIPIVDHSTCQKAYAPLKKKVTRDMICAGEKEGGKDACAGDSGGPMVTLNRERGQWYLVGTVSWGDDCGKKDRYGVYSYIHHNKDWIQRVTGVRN
# Description: (§1) Reactivity toward C1-inhibitor and alpha-2-macroglobulin—Inhibition of the enzymatic activities of the MASP fragments by C1-inhibitor and alpha-2-macroglobulin were tested as follows. MASP-1 and MASP-2 fragments at concentrations selected in the C2, C3, C3(NH3) and C4 cleavage tests were incubated at 37° C. with excess molar ratios of either C1-inhibitor, alpha-2-macroglobulin, or buffer in 20 mM HEPES, 140 mM NaCl, pH 7.4 for 40 minutes. Complement substrates C2, C3, C3(NH3) or C4 were added at typical concentrations of 0.5-1 μM and the samples were further incubated for 20 minutes. The cleaved and uncleaved chains were visualized by reducing SDS-PAGE and the degree of inhibition was compared.
# MASP-2 fragments = target: T2, MASP-2 fragments (Homo sapiens, UniProt O00187); assay: Inhibition of the enzymatic activities of the MASP-2 fragments by C1-inhibitor and alpha-2-macroglobulin; assay type: biochemical; conditions: for molar excess of inhibitor that abolishes all cleavages by the MASP-2 fragments: preincubation, C2, C3, C3(NH3), C4 substrates
# T2 construct: T7-Tag fragment Ala-Ser-Met (N, cleaved yes); made in house
# T2 sequence (O00187 445-686 limits assumed): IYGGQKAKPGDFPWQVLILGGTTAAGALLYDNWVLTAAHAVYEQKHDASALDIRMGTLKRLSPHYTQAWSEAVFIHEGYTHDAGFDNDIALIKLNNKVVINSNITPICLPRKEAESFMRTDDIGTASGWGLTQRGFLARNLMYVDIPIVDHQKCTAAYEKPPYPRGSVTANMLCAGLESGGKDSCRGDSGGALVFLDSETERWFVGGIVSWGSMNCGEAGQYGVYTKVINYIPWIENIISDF
# T2 sequence (O00187 291-444 partner limits assumed): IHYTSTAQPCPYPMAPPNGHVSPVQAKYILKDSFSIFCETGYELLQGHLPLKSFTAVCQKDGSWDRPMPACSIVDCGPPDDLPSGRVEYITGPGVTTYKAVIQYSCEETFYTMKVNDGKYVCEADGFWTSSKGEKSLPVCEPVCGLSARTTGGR
# Description: as §1
# [1] = marginal molar excess over the enzyme
substance,measurement,setting,value
C1-inhibitor: serpin C1-inhibitor purified from human serum,"effect on proteolytic activity of MASP-1 on all substrates, in words",MASP-1 CCP1-CCP2-SP; [1],completely abolished
same,"effect on proteolytic activity of MASP-2 on all substrates, in words",MASP-2 fragments; [1],completely abolished
same,molar excess of inhibitor that abolishes all cleavages by the MASP-2 fragments,MASP-2 fragments,1-3 fold
alpha-2-macroglobulin: human alpha-2-macroglobulin isolated from plasma,molar excess that completely blocks cleavage of C2 by the MASP-1 CCP1-CCP2-SP fragment,MASP-1 CCP1-CCP2-SP; C2 cleavage,1-3 fold
same,molar excess over MASP-1 CCP1-CCP2-SP that blocks C3 cleavages,MASP-1 CCP1-CCP2-SP; C3 cleavage,1-3 fold
same,molar excess over the MASP-2 fragments capable of significantly hindering C2 and C4 cleavage,MASP-2 fragments; C2 and C4 cleavage,40 fold
same,molar excess over MASP-2 CCP1-CCP2-SP that blocks C3 cleavages,MASP-2 fragments; C3 cleavage,1-3 fold
same,molar excess of inhibitor that abolishes all cleavages by the MASP-2 fragments,MASP-2 fragments,40 fold
